# According to the DeepSol protein solubility set:
# Assay: soluble on expression in E. coli; label from the status in PepcDB or PDB records
row,Sequence,soluble on expression in E. coli
1,MSLSDNVVTSKVGNVTEKELSKELRQQYGESTLYQMMLSKALLDKYKVSDEEAKKKVEEAKDKMGENFKSTLEQLGLKNEDELKEKMKPEIAFEKAIKATVTDKDVKNNYKPEMKVSHILVKDEKTAKEIKEKVNNGEDFAALANQYSEDTGSKEQGGEISGFAPGQTVKEFEEAAYKLDAGQVSDPVKTTYGYHIIKVTDKKELKPFDEVKDKIRKDIEQQRLQDTTGKWKQQVVNDLLKDADIKVNNKEFKDTFKFLEKEGHHHHHH,soluble
2,MSLSDVKVIIMDIDGTLTTSKKIISEKTKKALKKAQELGAVLILASGRPTSGLMDFAKELEMDKNHGLLVSFNGARVVDCETNKILFNETMSIDQGQAVLEHMKKFEVKPMIDKGDYMYVNDVFDNEIQYKGEPFNIIQYESRNNKFKLCEKHDLAAFADYPLNKILTAGEPEYLKKHYKEMMEPFKESLNCMFTADFYFEFTAEGIDKAKALDTVLIPMGYKKEEMIAFGDGHNDISMVKYAGIGVAMDNAVQELKNAADEVTLSNEEDGIAYTLSKYMKGLEGHHHHHH,soluble
3,MSLSEKVTIYDIAEKLNITAATVSRALNNNPKIKESTRELVIKTAASMNYKQNKLALALKSGRSNNIGVIVPRIDSNFFASVIRGIEEELQPHGYQVIICQTHESKQRENENLYTLIDAQVDGILMSVTDVTSENDDAFNNVLQKNVPLIFFDRSKHIDGVSSVTINDFRGGYLTTKHLINEGCRYIAHFSGDQSLEIFKNRFLGYKQALLDHGIEFKEEYVIPVKSMVDAGKEAVDKLLQLETPPDAIFSSSDFAALGAIQELKERNISIPNEFCVAGFSNEPFTKFMELSITSVDQSPLEMGKMAARVFLEQVDKTDTIKIEKKVVLAPELHIRKSSSRTNFEGHHHHHH,soluble
4,MSLSHQQKVYIPKEARTNQYITAEIKVTDELLNQYPDYHSCYQTLSRIIFNLAEQHDLRNVHVITNDKLPVVRYHTEAYCFQTAEQILFFYNPAYHEAQNLFTADNYRARKLRIVFLATGDEIRSNSANFHTRVQEFLNELMPKLPIKDLKVKIRDHQHLSYDLFAKSKGNKETYGYKLRAIAPRYKARKCELPENVSSLTYVTVSLPLSRKLKQGLLPESATDFSPLYQHLEDNFLKAAANKQLTRLAMIANGLTPLVRNSKFEKLDSKAEVQMIGFDPNATEQQVIRRWDADNLVEAAHFTIVAGAKDCDDAGYGRFMNNVEAALKSFAAEIGLDPEREDLVTRFHQHISYQL,soluble
5,MSLSHSEAGQAASVRRVLAVIPARGGSKGVPAKNLLPVGGVPLVARAVRECRATRLVTDVVVSTDDHAIAAAAREAGAEVVLRPAAIAGDTATSEAAVLHAMDTHEALHGAAVDVVLLVQCTSPFIVREDVDGVVHAIVGKGADTALTVAPFHGFVWRDADDAPGALGAERAAVEGGTDTLVTGTATSGGYGINHDKSFRPRRQDRPQDLLETGAVYGMDATGFREARHRFFGRTELVRTDPARVLEIDDPHDLARARALAPLFDANRPGALPTAEDIDAVVLDFDGTQTDDRVLIDSDGREFVSVHRGDGLGIAALRKSGLTMLILSTEQNPVVAARARKLKIPVLHGIDRKDLALKQWCEEQGIAPERVLYVGNDVNDLPCFALVGWPVAVASAHDVVRGAARAVTTVPGGDGAIREIASWILGPSLDSLDKEGHHHHHH,soluble
6,MSLSIAKNIENDPSKGWVVQKFGGTSVGKFPIKIAVDVAKEYLSTKRVALVCSARSTDTKAEGTTTRLIRATEAALRPAVGSVHDLVRIIETDHVQAARDFIQDVGIQDELIDAFHADCVELEQYLNAIRVLSEVSPRTRDLVIGMGERLSCRFMAAVLKDQGIDSEFIDMSHIIDEQREWRNLDASFYAYLASQLASKVTAVGNKVPVVTGFFGMVPGGLLSQIGRGYTDFCAALLAVGLNADELQIWKEVDGIFTADPRKVPTARLLPLITPEEAAELTYYGSEVIHPFTMSQVVHARIPIRIKNVGNPRGKGTVIFPDTISRHGSATPPHPPKIMPDDISASLANKGATAVTIKDTIMVINIQSNRKISAHGFLASIFAILDKYKLAVDLITTSEVHVSMALYEESDDGNMHEAFVELRRLGTLDILHGLAILSLVGKHMRNTTGYAGRMFCKLAEAQINIEMISQGASEINISCVIDEKMAVKALNVIHKELLEPLALHEVPSQASMLVEKPWLYSAEGHHHHHH,soluble
7,MSLSIFEHFQARYEAAKDEELSIQDFLALCKENKSAYANAAERLLLAIGEPEMIDTSKHSRLSRIFSNRVIARYKTFEDFYGMEEAIEQIVAYLKHAAQGLEERKQILYLLGPVGGGKSSLAEKLKALMQQMPIYVLSANGQRSPVNDHPFCLFDVNEDGELLKQEYGIDRRYLRSIMSPWAAKRLHEFGGDITKFKVVKVRPSILDQIAVAKTEPGDENNQDISSLVGKVDIRKLEHFSQDDPDAYSYSGALCRANQGLMEFVEMFKAPIKVLHPLLTATQEGNYNGTEGLSALPFDGMILAHSNESEWQTFRNNKNNEAFLDRVYIVKVPYCLRVSEEVKIYQKLLDHSELSKAPCAPSTLDLLAQFSVLSRLKVPENSSLFSKMRVYDGETLKDTDPKAKSYQEYRDYAGVDEGMSGLSTRFAFKILSRVFNFDHSEVAANPVHLFYVIEQQVEREQFPQETADRYNEFLKGYLIPRYVEFIGKEIQTAYLESYSEYGQNIFDRYVTYADFWIQDQEYRDPETGQLFDRSALNSELEKIEKTAGISNPKDFRNEIVNFVLRARANNNGQNPVWTSYEKLRTVIEKKMFSNTEDLLPVISFNAKTSSDDQKKHDDFVARMMEKGYTEKQVRLLSEWYLRVRKSSEGHHHHHH,soluble
8,MSLSIISQIEACDFERLYEIEQQAHLVPWSFGTLKNNQGERYLNLKLIENNQIIGFAICQTVLDEATLFNIAILPTYQGCGFGKLLLGKLIFQLKEKGVQTLWLEVRESNSARFLYEKIGFNEVDIRKNYYPKPSGGRENAVVMACYLEGHHHHHH,not soluble
9,MSLSILNSNAALRGLLDQHLADLSREEGLAPETIRDAIERGTMVLLGNPSHPSLRPILVGQPARVKVNANIGTSPMRNHPECEMQKVDAAVEAGADTIMDLSIAGDLDAIRREMLARCPLPLGTVPLYSVAQKYIECGKDPALIDPEEIFAEIEKQAQQGVDFMTVHCGLTRRGAEWAAKGDRLLGIVSRGGSILARWMLRHDRENPLLTGYDRILDIARKYNVTLSLGDGLRPGAGADAGDAAQWEEVMVLGQLAKRGLEAGVQCMIEGPGHVPMNEVEAQIVGIKKLTHGAPLYVLGPLVIDSCPGYDHIAGAIGGALAVRSGVDFLCYLTPAEHLTLPTREDVRAGVIASRIAAQAGEVALGRPHALARELGMGKARKALDWPGMERHALDAAMVDERRGEHRNEEECAMCGKFCAVKMLRDDPQGAFEGHHHHHH,soluble
10,MSLSILQRLIQQAKNPRGTIGSSMLCIMNTAHTRLTNWALQKVHIKKDAIILDIGCGGGKTIHTLSKRTPLGKIYGIDYSYQAVKNSIQTNIKDVQKQKVIVQQASVSSIPYHTNFFDLITAFQTHYFWPDVEQDIKEVFRVLQPNGSFLLVAETFKIQYHMEKWKTNEELINLFYKTGFTSVKCYEERGCLCVIGTKEGHHHHHH,not soluble
11,MSLSIRSLFGGLREKILGKNMKIVFPEGNDERVVRAAARLKFEGLLEPIILGQSEEVRNLLTKLGFADQDYTIINPNEYADFDKMKEAFVEVRKGKATLEDADKMLRDVNYFGVMLVKMGLADGMVSGAIHSTADTVRPALQIIKTKPGISRTSGVFLMNRENTSERYVFADCAINIDPTAQELAEIAVNTAETAKIFDIDPKIAMLSFSTKGSGKAPQVDKVREATEIATGLNPDLALDGELQFDAAFVPETAAIKAPDSAVAGQANTFVFPDLQSGNIGYKIAQRLGMFDAIGPILQGLNKPVNDLSRGSSAEDIYKLAIITAAQAIESQGEGHHHHHH,soluble
12,MSLSISFKDVPAGHWSYKAILDLASKNIVTGYGNGIFGFGDDVTREQVARLMYLQLKPESQENYNNPYNDINDHSTSFKREILALTEMGIFAGDEKGNFRPKASLTREEMAQVLTNAYKLVAKSEHTFVDVDRKSWSNKAISAVQSNRIAAGTGDNMFSPKMNVTREQYVQFLYNATLPYEERPGANQEPKRFANCKEANDAGYYDITRDSPYYGKHLDRDGDGIACERNKSSKEGHHHHHH,not soluble
13,MSLSKEVVYVPTGSIAKERSIFFDLKHMDKLTDLVNSGSFSADSKIKSEASGNIRMDVILSADNKFAAVQLFQFVPYTYQPVTAVHYFTNDAAAAVAAFLTKSQLNEGHHHHHH,soluble
14,MSLSKFTEMMKNRRSIYALGENLPISKEEVTALVKEVVRESPTAFNSQTQRVVFLFGDAHKKLWAMTEDALKPLTPAEAFPNTQAKLQGFAAGAGTILFFEDTDIVKNLQDSFPLYADNFPVWSEQATGLTQANVWTALAQENIGANLQHYNPVIDEAVAAEWSIPANWNLRAQMVIGSIEAPAGEKEYMEDSARFKEFNEGGSHHHHHH,soluble
15,MSLSKVLYIQDHDVTWIQFNRPEKRNAIDEETMDQFAEALAQAKGDQSKVIIVTGAGEKAFCAGGDLSSFHKLKTESEAKAMLAKMAKILLDVYYCPKLTVAALNGAAVGGGCEIAAACDIRLAAPHSKFGFIQGTLGITTGWGGTSFLMTRVQPHVSLEMTMTGKVYSSDVGENLGFIQKVIQKIPFREGVKEWLGLYTVLDQEVLIAYKERHLDRISRKELIWRIEREVAKCAQLWERDAHHEAVDAFLREGHHHHHH,soluble
16,MSLSLFDMFKVGIGPSSSHTVGPMKAGKQFVDDLVEKGLLDNVTRVAVDVYGSLSLTGKGHHTDIAIIMGLAGNEPATVDIDSIPGFIRDVETRERLLLAQGRHEVDFPKDDGMRFHNGNLPLHENGMQIHAWHDDTVIYSKTYYSIGGGFIVDEEHFGQEATNEVTVPYPFKSAKEMLEYCNSTGLSLSGMVMQNELALHSKKEIEEYFGHVWQTMQACIDRGMNTEGVLPGPLRVPRRASALRRMLVSSDKLSSDPMNVIDWVNMFALAVNEENAAGGRVVTAPTNGACGIVPAVLAYYDHFIESVSPDIYTRYFLAAGAIGALYKMNASISGAEVGCQGEVGVACSMAAAGLAELLGASPEQVCVAAEIGMEHNLGLTCDPVAGQVQVPCIERNAIASVKAINAARMAMRRTSAPRVSLDKVIETMYETGKDMNAKYRETSRGGLAIKVQCDEGHHHHHH,soluble
17,MSLSLIKVGLVGIGAQMQENLLPSLLQMQDIRIVAACDSDLERARRVHRFISDIPVLDNVPAMLNQVPLDAVVMAGPPQLHFEMGLLAMSKGVNVFVEKPPCATLEELETLIDAARRSDVVSGVGMNFKFARPVRQLREMTQVDEFGETLHIQLNHYANKPRAPLWGLDSTLRSFLLAQAIHTIDLAITFGDGELRRVQSSVQRHDDALIVRADMAFSSGATASLLAGTSFPYFEFDMKLVSSSSTLVELDNLWNITLHEPEHATRPTGAAKRWRGAWQPGPLDSGYERSGYHGELHQFFQAIREHRRFEADFASLLPTYRVIEEICSADAVAQGLQNAHSRIRTGIESLSEGHHHHHH,soluble
18,MSLSLPRWKQIVHMLYLKMEFISGGELGEALAVNPRTIRNDIKVINQILMIGGNRIESLPGVGYRLVIGDEKALREALLDDSIGRANMNIVPMFAEDRADYIIRYLLLKNDYVKLETLSEELFVSKSTINLDILEVKRKLKENELKVEKRAGYGIRITGAELAIRFCFSRYLLVESTSPLITETEINFFGEVNLEMMEQIVVSNIAKYNIHMTDISVKNLIIHIAIAVCRVKDNCYVPATDLEDIEFSMPELRAAQGIIKEIDLSEGIRFPESETAYLLLHLSSKNRKSDFNNYREYIIVDKMLEKIKELYGYDFKQDQKMISNIALHLKPAINRIKFNMNIQNPYLKNLKANYPLAFELGLVAKEVLEQELKTNVDEAEVGYLAIHFLYGLDKEEGHHHHHH,soluble
19,MSLSNSLLPPNASGLERDIEQVIVQSTDLPIRIKDLWNPYSCHLSLLPWLAWALSVDEWDDRWPEHIKRQVVQDSFDVHRFKGTPYAVQKALDSLNIKTHLREWWEPDGSQEPGTMTVVALINENLTDDDNGLITEAMLEQVTRVIHTAKRGVIHFDVELGISLDETLGFSGAIGPSIAEIDFSSDFLPIVPEKGSADMAFSAALYGIGSADFLADMSGVVPDEGHHHHHH,not soluble
